From article PMC7589864

Molecular target: F-actin of thin filaments in ghost fibers from rabbit psoas muscle (rabbit (endogenous in psoas muscle fibers)) (UniProt P68135)
Assay: polarized microfluorimetry of ghost muscle fibers; 5-IAF-labelled Tpm incorporated into ghost fibers (2 mg/mL, 2-3 h); sum of the four polarized fluorescence intensities of Tpm-AF, in the presence of S1

Chain of recombinant control (wild-type) human tropomyosin Tpm2.2 (natural protein) (P07951 whole entry): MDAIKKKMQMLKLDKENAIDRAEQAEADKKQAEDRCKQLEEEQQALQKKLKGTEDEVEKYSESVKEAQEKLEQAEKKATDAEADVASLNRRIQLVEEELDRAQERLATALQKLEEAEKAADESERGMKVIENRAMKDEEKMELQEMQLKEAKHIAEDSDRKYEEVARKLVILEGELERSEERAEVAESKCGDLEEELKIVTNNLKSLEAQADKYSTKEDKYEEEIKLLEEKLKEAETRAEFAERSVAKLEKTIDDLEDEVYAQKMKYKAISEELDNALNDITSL

Substance	sum of fluorescence intensities for Tpm-AF (Isum) in ghost fibers
recombinant control (wild-type) human tropomyosin Tpm2.2 (natural protein)	1030
recombinant mutant human tropomyosin Tpm2.2 with the Gln147Pro substitution (natural protein)	978
